Laboratory results taken from the supplement of paper PMC5998384.

Key:
HeLa Kyoto [1] = assay: thermal stability score vs G1/S (z-score of summed log2 fold changes over temperatures); higher = more thermally stable than in G1/S
HeLa Kyoto [2] = assay: solubility in G1/S (NP-40 vs SDS abundance) (log2 ratio); higher = more soluble; conditions: cell cycle stage: G1/S
HeLa Kyoto [3] = assay: solubility change mitosis vs G1/S (difference of NP-40 vs SDS log2 ratios) (log2 ratio difference); higher = more soluble in mitosis
[4] = cell cycle stage: early G1 (4.5 h after nocodazole release)
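Throughout, for solubility change mitosis vs G1/S (difference of NP-40 vs SDS log2 ratios): synchronized HeLa Kyoto cells (double thymidine block for G1/S, nocodazole release for mitosis), protein amounts in NP-40 versus SDS lysates quantified by mass spectrometry, three biological replicates.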
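Throughout, for solubility in G1/S (NP-40 vs SDS abundance): HeLa Kyoto cells arrested at G1/S by double thymidine block, proteins quantified by TMT10plex mass spectrometry in mild NP-40 versus SDS extracts, three biological replicates.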
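Throughout, for thermal stability score vs G1/S (z-score of summed log2 fold changes over temperatures): synchronized HeLa Kyoto cells, proteins quantified by TMT10plex mass spectrometry, three biological replicates, mitosis taken 0.5 h after nocodazole release, G1/S directly after double thymidine block.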

Chain of MFSD12 (chain, as listed by the source): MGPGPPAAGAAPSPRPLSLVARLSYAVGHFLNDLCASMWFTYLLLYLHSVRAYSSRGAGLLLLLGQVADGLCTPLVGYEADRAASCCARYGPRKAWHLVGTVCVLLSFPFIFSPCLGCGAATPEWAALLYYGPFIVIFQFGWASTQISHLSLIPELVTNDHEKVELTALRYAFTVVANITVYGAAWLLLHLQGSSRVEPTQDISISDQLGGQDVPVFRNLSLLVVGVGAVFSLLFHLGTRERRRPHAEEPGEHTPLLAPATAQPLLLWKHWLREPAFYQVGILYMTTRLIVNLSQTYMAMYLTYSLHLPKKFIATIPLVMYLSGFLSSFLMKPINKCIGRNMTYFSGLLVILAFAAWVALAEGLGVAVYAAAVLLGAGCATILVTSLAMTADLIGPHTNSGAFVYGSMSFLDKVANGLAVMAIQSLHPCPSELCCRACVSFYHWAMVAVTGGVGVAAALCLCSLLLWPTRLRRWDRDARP

Row | Substance | thermal stability score (HeLa Kyoto [1]; [4]) | thermal stability score (HeLa Kyoto [1]; cell cycle stage: mitosis) | solubility in G1/S (log2) (HeLa Kyoto [2]) | solubility change mitosis (log2) (HeLa Kyoto [3])
1 | MAGFAELGLSSWLVEQCRQLGLKQPTPVQLGCIPAILEGRDCLGCAKTGSGKTAAFVLPILQKLSEDPYGIFCLVLTPTRELAYQIAEQFRVLGKPLGLKDCIIVGGMDMVAQALELSRKPHVVIATPGRLADHLRSSNTFSIKKIRFLVMDEADRLLEQGCTDFTVDLEAILAAVPARRQTLLFSATLTDTLRELQGLATNQPFFWEAQAPVSTVEQLDQRYLLVPEKVKDAYLVHLIQRFQDEHEDWSIIIFTNTCKTCQILCMMLRKFSFPTVALHSMMKQKERFAALAKFKSSIYRILIATDVASRGLDIPTVQVVINHNTPGLPKIYIHRVGRTARAGRQGQAITLVTQYDIHLVHAIEEQIKKKLEEFSVEEAEVLQILTQVNVVRRECEIKLEAAHFDEKKEINKRKQLILEGKDPDLEAKRKAELAKIKQKNRRFKEKVEETLKRQKAGRAGHKGRPPRTPSGSHSGPVPSQGLV [DDX49] | 2.1 | 1.97 | -0.148 | -0.0629
2 | MAGKAAAPGTAVLLVTANVGSLFDDPENLQKNWLREFYQVVHTHKPHFMALHCQEFGGKNYEASMSHVDKFVKELLSSDAMKEYNRARVYLDENYKSQEHFTALGSFYFLHESLKNIYQFDFKAKKYRKVAGKEIYSDTLESTPMLEKEKFPQDYFPECKWSRKGFIRTRWCIADCAFDLVNIHLFHDASNLVAWETSPSVYSGIRHKALGYVLDRIIDQRFEKVSYFVFGDFNFRLDSKSVVETLCTKATMQTVRAADTNEVVKLIFRESDNDRKVMLQLEKKLFDYFNQEVFRDNNGTALLEFDKELSVFKDRLYELDISFPPSYPYSEDARQGEQYMNTRCPAWCDRILMSPSAKELVLRSESEEKVVTYDHIGPNVCMGDHKPVFLAFRIMPGAGKPHAHVHKCCVVQ [INPP5A] | 0.56 | -0.257 | -0.359 | -0.17
3 | MAGVGDAAAPGEGGGGGVDGPQRDGRGEAEQPGGSGGQGPPPAPQLTETLGFYESDRRRERRRGRTELSLLRFLSAELTRGYFLEHNEAKYTERRERVYTCLRIPRELEKLMVFGIFLCLDAFLYVFTLLPLRVFLALFRLLTLPCYGLRDRRLLQPAQVCDILKGVILVICYFMMHYVDYSMMYHLIRGQSVIKLYIIYNMLEVADRLFSSFGQDILDALYWTATEPKERKRAHIGVIPHFFMAVLYVFLHAILIMVQATTLNVAFNSHNKSLLTIMMSNNFVEIKGSVFKKFEKNNLFQMSNSDIKERFTNYVLLLIVCLRNMEQFSWNPDHLWVLFPDVCMVIASEIAVDIVKHAFITKFNDITADVYSEYRASLAFDLVSSRQKNAYTDYSDSVARRMGFIPLPLAVLLIRVVTSSIKVQGILSYACVILFYFGLISLKVLNSIVLLGKSCQYVKEAKMEEKLSNPPATCTPGKPSSKSQNKCKPSQGLSTEENLSASITKQPIHQKENIIPLLVTSNSDQFLTTPDGDEKDITQDNSELKHRSSKKDLLEIDRFTICGNRID [TAPT1] | -2.91 | -4.92 | -0.313 | 0.0176
4 | MALFYVARYPGPDAAAAAGPEGAEAGAHGRARALLERLQSRARERQQQREPAQTEAAASTEPATRRRRRPRRRRRVNDAEPGSPEAPQGKRRKADGEDAGAESNEEAPGEPSAGSSEEAPGEPSAGSSEEAPGERSTSASAEAAPDGPALEEAAGPLVPGLVLGGFGKRKAPKVQPFLPRWLAEPNCVRRNVTEDLVPIEDIPDVHPDLQKQLRAHGISSYFPVQAAVIPALLESAACGFLVGRGGYRPSDLCVSAPTGSGKTLAFVIPVVQALLSRVVCHIRALVVLPTKELAQQVSKVFNIYTDATPLRVSLVTGQKSLAKEQESLVQKTADGYRCLADIVVATPGRLVDHIDQTPGFSLQQLRFLIIDEADRMIDSMHQSWLPRVVAAAFQSEDPADPCALLQRRQAQAVTAASTCCPQMPLQKLLFSATLTQNPEKLQQLGLHQPRLFSTGLAHRGLEDTDGDGDSGKYAFPVGLTHHYVPCSLSSKPLVVLHLVLEMGFSRVLCFTNSRENSHRLFLLVQAFGGVDVAEFSSRYGPGQRRMILKQFEQGKIQLLISTDATARGIDVQGVELVVNYDAPQYLRTYVHRVGRTARAGKTGQAFTLLLKVQERRFLRMLTEAGAPELQRHELSSKLLQPLVPRYEEALSQLEESVKEERKQRAA [DDX51] | -0.0942 | 1.3 | -1.48 | 1.23
5 | MARACLQAVKYLMFAFNLLFWLGGCGVLGVGIWLAATQGSFATLSSSFPSLSAANLLIITGAFVMAIGFVGCLGAIKENKCLLLTFFLLLLLVFLLEATIAILFFAYTDKIDRYAQQDLKKGLHLYGTQGNVGLTNAWSIIQTDFRCCGVSNYTDWFEVYNATRVPDSCCLEFSESCGLHAPGTWWKAPCYETVKVWLQENLLAVGIFGLCTALVQILGLTFAMTMYCQVVKADTYCA [TSPAN4] | -5.28e-17 | 1.16e-18 | -0.165 | 0.125
6 | MATIEEIAHQIIEQQMGEIVTEQQTGQKIQIVTALDHNTQGKQFILTNHDGSTPSKVILARQDSTPGKVFLTTPDAAGVNQLFFTTPDLSAQHLQLLTDNSPDQGPNKVFDLCVVCGDKASGRHYGAVTCEGCKGFFKRSIRKNLVYSCRGSKDCIINKHHRNRCQYCRLQRCIAFGMKQDSVQCERKPIEVSREKSSNCAASTEKIYIRKDLRSPLTATPTFVTDSESTRSTGLLDSGMFMNIHPSGVKTESAVLMTSDKAESCQGDLSTLANVVTSLANLGKTKDLSQNSNEMSMIESLSNDDTSLCEFQEMQTNGDVSRAFDTLAKALNPGESTACQSSVAGMEGSVHLITGDSSINYTEKEGPLLSDSHVAFRLTMPSPMPEYLNVHYIGESASRLLFLSMHWALSIPSFQALGQENSISLVKAYWNELFTLGLAQCWQVMNVATILATFVNCLHNSLQQDKMSTERRKLLMEHIFKLQEFCNSMVKLCIDGYEYAYLKAIVLFSPDHPSLENMEQIEKFQEKAYVEFQDYITKTYPDDTYRLSRLLLRLPALRLMNATITEELFFKGLIGNIRIDSVIPHILKMEPADYNSQIIGHSI [NR2C1] | 0.319 | 0.185 | 0.173 | -0.0241
7 | MEEEDEEARALLAGGPDEADRGAPAAPGALPALCDPSRLAHRLLVLLLMCFLGFGSYFCYDNPAALQTQVKRDMQVNTTKFMLLYAWYSWPNVVLCFFGGFLIDRVFGIRWGTIIFSCFVCIGQVVFALGGIFNAFWLMEFGRFVFGIGGESLAVAQNTYAVSWFKGKELNLVFGLQLSMARIGSTVNMNLMGWLYSKIEALLGSAGHTTLGITLMIGGITCILSLICALALAYLDQRAERILHKEQGKTGEVIKLTDVKDFSLPLWLIFIICVCYYVAVFPFIGLGKVFFTEKFGFSSQAASAINSVVYVISAPMSPVFGLLVDKTGKNIIWVLCAVAATLVSHMMLAFTMWNPWIAMCLLGLSYSLLACALWPMVAFVVPEHQLGTAYGFMQSIQNLGLAIISIIAGMILDSRGYLFLEVFFIACVSLSLLSVVLLYLVNRAQGGNLNYSARQREEIKFSHTE [MFSD1] | -0.307 | -0.166 | -0.268 | -0.327
8 | MEGVSALLARCPTAGLAGGLGVTACAAAGVLLYRIARRMKPTHTMVNCWFCNQDTLVPYGNRNCWDCPHCEQYNGFQENGDYNKPIPAQYLEHLNHVVSSAPSLRDPSQPQQWVSSQVLLCKRCNHHQTTKIKQLAAFAPREEGRYDEEVEVYRHHLEQMYKLCRPCQAAVEYYIKHQNRQLRALLLSHQFKRREADQTHAQNFSSAVKSPVQVILLRALAFLACAFLLTTALYGASGHFAPGTTVPLALPPGGNGSATPDNGTTPGAEGWRQLLGLLPEHMAEKLCEAWAFGQSHQTGVVALGLLTCLLAMLLAGRIRLRRIDAFCTCLWALLLGLHLAEQHLQAASPSWLDTLKFSTTSLCCLVGFTAAVATRKATGPRRFRPRRFFPGDSAGLFPTSPSLAIPHPSVGGSPASLFIPSPPSFLPLANQQLFRSPRRTSPSSLPGRLSRALSLGTIPSLTRADSGYLFSGSRPPSQVSRSGEFPVSDYFSLLSGSCPSSPLPSPAPSVAGSVASSSGSLRHRRPLISPARLNLKGQKLLLFPSPPGEAPTTPSSSDEHSPHNGSLFTMEPPHVPRKPPLQDVKHALDLRSKLERGSACSNRSIKKEDDSSQSSTCVVDTTTRGCSEEAATWRGRFGPSLVRGLLAVSLAANALFTSVFLYQSLR [TMEM201] | 0.522 | 0.638 | -0.162 | 0.283
9 | MELRARGWWLLCAAAALVACARGDPASKSRSCGEVRQIYGAKGFSLSDVPQAEISGEHLRICPQGYTCCTSEMEENLANRSHAELETALRDSSRVLQAMLATQLRSFDDHFQHLLNDSERTLQATFPGAFGELYTQNARAFRDLYSELRLYYRGANLHLEETLAEFWARLLERLFKQLHPQLLLPDDYLDCLGKQAEALRPFGEAPRELRLRATRAFVAARSFVQGLGVASDVVRKVAQVPLGPECSRAVMKLVYCAHCLGVPGARPCPDYCRNVLKGCLANQADLDAEWRNLLDSMVLITDKFWGTSGVESVIGSVHTWLAEAINALQDNRDTLTAKVIQGCGNPKVNPQGPGPEEKRRRGKLAPRERPPSGTLEKLVSEAKAQLRDVQDFWISLPGTLCSEKMALSTASDDRCWNGMARGRYLPEVMGDGLANQINNPEVEVDITKPDMTIRQQIMQLKIMTNRLRSAYNGNDVDFQDASDDGSGSGSGDGCLDDLCSRKVSRKSSSSRTPLTHALPGLSEQEGQKTSAASCPQPPTFLLPLLLFLALTVARPRWR [GPC1] | 1.52 | 3.51 | -0.193 | -0.378
10 | MEQAPPDPERQLQPAPLEPLGSPDAGLGAAVGKEAEGAGEESSGVDTMTHNNFWLKKIEISVSEAEKRTGRNAMNMQETYTAYLIETRSVEHTDGQSVLTDSLWRRYSEFELLRSYLLVYYPHIVVPPLPEKRAEFVWHKLSADNMDPDFVERRRIGLENFLLRIASHPILCRDKIFYLFLTQEGNWKETVNETGFQLKADSRLKALNATFRVKNPDKRFTDLKHYSDELQSVISHLLRVRARVADRLYGVYKVHGNYGRVFSEWSAIEKEMGDGLQSAGHHMDVYASSIDDILEDEEHYADQLKEYLFYAEALRAVCRKHELMQYDLEMAAQDLASKKQQCEELVTGTVRTFSLKGMTTKLFGQETPEQREARIKVLEEQINEGEQQLKSKNLEGREFVKNAWADIERFKEQKNRDLKEALISYAVMQISMCKKGIQVWTNAKECFSKM [SNX4] | 0.919 | 0.324 | 0.0889 | -0.0064
11 | MEREPGAAGVRRALGRRLEAVLASRSEANAVFDILAVLQSEDQEEIQEAVRTCSRLFGALLERGELFVGQLPSEEMVMTGSQGATRKYKVWMRHRYHSCCNRLGELLGHPSFQVKELALSALLKFVQLEGAHPLEKSKWEGNYLFPRELFKLVVGGLLSPEEDQSLLLSQFREYLDYDDTRYHTMQAAVDAVARVTGQHPEVPPAFWNNAFTLLSAVSLPRREPTVSSFYVKRAELWDTWKVAHLKEHRRVFQAMWLSFLKHKLPLSLYKKVLLIVHDAILPQLAQPTLMIDFLTRACDLGGALSLLALNGLFILIHKHNLEYPDFYRKLYGLLDPSVFHVKYRARFFHLADLFLSSSHLPAYLVAAFAKRLARLALTAPPEALLMVLPFICNLLRRHPACRVLVHRPHGPELDADPYDPGEEDPAQSRALESSLWELQALQRHYHPEVSKAASVINQALSMPEVSIAPLLELTAYEIFERDLKKKGPEPVPLEFIPAQGLLGRPGELCAQHFTLS [NOC4L] | -3.25e-17 | 3.03e-17 | -1.47 | 0.579
12 | MFSD12 | 0.154 | 0.3 | -0.246 | -0.237
13 | MGAVLGVFSLASWVPCLCSGASCLLCSCCPNSKNSTVTRLIYAFILLLSTVVSYIMQRKEMETYLKKIPGFCEGGFKIHEADINADKDCDVLVGYKAVYRISFAMAIFFFVFSLLMFKVKTSKDLRAAVHNGFWFFKIAALIGIMVGSFYIPGGYFSSVWFVVGMIGAALFILIQLVLLVDFAHSWNESWVNRMEEGNPRLWYAALLSFTSAFYILSIICVGLLYTYYTKPDGCTENKFFISINLILCVVASIISIHPKIQEHQPRSGLLQSSLITLYTMYLTWSAMSNEPDRSCNPNLMSFITRITAPTLAPGNSTAVVPTPTPPSKSGSLLDSDNFIGLFVFVLCLLYSSIRTSTNSQVDKLTLSGSDSVILGDTTTSGASDEEDGQPRRAVDNEKEGVQYSYSLFHLMLCLASLYIMMTLTSWYSPDAKFQSMTSKWPAVWVKISSSWVCLLLYVWTLVAPLVLTSRDFS [SERINC3] | -2.7 | -4.19 | -0.0916 | 0.0994
